The assay deals with T1, β3 integrin (Mus musculus, UniProt O54890+P43406).
T1 construct: we isolated primary CD8+ T-cells from melanoma bearing mice; endogenous in cells; host or cells: primary CD8+ T-cells isolated from melanoma bearing mice
T1 sequence (O54890 26-787): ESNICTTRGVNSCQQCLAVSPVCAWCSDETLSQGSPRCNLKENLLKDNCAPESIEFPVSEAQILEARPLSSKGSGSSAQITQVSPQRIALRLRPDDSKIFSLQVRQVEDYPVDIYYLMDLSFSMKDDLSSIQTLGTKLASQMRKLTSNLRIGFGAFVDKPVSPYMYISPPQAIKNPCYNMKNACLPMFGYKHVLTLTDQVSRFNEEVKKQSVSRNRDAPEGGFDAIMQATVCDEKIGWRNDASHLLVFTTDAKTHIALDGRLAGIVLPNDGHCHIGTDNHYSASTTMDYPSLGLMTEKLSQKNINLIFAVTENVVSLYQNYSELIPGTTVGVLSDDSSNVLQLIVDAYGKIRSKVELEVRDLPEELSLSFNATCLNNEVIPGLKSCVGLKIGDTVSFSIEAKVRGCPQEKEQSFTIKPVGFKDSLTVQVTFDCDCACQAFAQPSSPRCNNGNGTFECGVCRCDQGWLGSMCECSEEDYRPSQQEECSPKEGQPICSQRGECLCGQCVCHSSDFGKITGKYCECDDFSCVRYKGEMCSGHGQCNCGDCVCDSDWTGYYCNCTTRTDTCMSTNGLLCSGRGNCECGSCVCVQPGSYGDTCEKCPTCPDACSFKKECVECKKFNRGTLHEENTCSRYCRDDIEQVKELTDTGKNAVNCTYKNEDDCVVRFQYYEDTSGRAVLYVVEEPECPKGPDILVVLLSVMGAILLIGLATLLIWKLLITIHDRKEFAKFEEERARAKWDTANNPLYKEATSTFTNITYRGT
T1 sequence (P43406 31-885 limits assumed): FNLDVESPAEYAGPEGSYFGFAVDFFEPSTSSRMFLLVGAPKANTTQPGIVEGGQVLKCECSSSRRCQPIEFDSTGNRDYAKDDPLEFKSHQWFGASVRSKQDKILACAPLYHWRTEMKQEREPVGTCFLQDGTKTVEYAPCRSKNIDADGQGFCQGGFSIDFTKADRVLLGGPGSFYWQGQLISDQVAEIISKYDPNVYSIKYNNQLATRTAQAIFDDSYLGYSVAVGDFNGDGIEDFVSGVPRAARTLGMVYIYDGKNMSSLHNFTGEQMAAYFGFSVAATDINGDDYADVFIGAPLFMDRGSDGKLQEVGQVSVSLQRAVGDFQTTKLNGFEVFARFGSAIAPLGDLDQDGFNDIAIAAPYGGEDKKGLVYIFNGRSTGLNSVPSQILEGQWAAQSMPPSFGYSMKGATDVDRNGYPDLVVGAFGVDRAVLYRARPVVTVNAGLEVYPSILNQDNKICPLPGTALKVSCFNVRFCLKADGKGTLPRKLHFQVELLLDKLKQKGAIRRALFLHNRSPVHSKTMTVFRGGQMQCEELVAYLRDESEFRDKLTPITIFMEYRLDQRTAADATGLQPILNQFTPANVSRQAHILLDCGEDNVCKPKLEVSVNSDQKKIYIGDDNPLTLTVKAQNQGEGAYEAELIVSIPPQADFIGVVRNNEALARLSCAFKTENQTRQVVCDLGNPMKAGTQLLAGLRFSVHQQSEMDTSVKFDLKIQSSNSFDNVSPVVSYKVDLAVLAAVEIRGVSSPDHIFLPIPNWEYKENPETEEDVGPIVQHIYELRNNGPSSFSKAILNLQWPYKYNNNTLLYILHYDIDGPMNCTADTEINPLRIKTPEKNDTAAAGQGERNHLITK
T1 sequence (P43406 887-1044 partner limits assumed): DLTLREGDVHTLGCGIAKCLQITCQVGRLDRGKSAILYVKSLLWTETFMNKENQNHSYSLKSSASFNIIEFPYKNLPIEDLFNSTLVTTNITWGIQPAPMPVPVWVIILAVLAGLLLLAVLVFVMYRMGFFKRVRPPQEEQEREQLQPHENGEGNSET
Put plainly: Western blot of β3 integrin phosphorylation in primary CD8+ T-cells after peptide stimulation. It is filed as cell-based, murine. The following applies: primary CD8+ T-cells from melanoma bearing mice, compared to control peptide CP. As to the method: FIGS. 2A-2F. Detection of RGDKGE (SEQ ID NO: 1)-containing collagen peptide in malignant tumor cells and expression of key signaling molecules in T-cells. Briefly, whole cell lysates and serum free concentrated conditioned medium was prepared from tumor cells lines. FIG. 2A. Western blot analysis of whole cell lysates from human C8161 and murine B16F10 melanoma cells for the expression of the low molecular weight 16 kDa RGDKGE (SEQ ID NO: 1)-containing collagen peptide (XL313) or actin as a loading control. FIG. 2B. […]
Whole cell and CAM tissue lysates were collected in RIPA buffer (10 mM Tris-HCl, pH 8.0; 1 mM EDTA; 0.5 mM EGTA; 1% Triton X-100; 0.1% Sodium Deoxycholate; 0.1% SDS; 140 mM NaCl) supplemented with 1× protease inhibitor and 1× phosphatase inhibitor and were run on polyacrylamide gels using denaturing conditions. […] Western blot bands were quantified using Image J software based on pixel intensity.
We previously made the surprising observation that a small bioactive collagen peptide containing the core amino acid sequence RGDKGE (SEQ ID NO: 1) could be generated inside a subset of M2-like activated macrophages as well as a variety of other malignant tumor cells, and then actively secreted outside the cells (11-13). Importantly, minimal levels of this soluble collagen peptide was detected in normal cells (13). […]
(In western blotting, separated proteins are transferred to a membrane and probed.)

For the sequence “QGPRGDKGE (CQGPRGDKGEC; Synthetic: Synthetic collagen RGD containing peptide P-2) [Peptide P2, synthetic version of the soluble RGDKGE-containing collagen peptide]”, the β3 integrin phosphorylation result is recorded as “enhanced β3 integrin phosphorylation”.

For the origin of these results see patent US20240327506A1, “METHODS AND COMPOSITION FOR THE SELECTIVE ENHANCEMENT OF ADOPTIVE CELL THERAPY” (MaineHealth, priority 2023, published 2024).
